Paper PMC3068300 (Proteins, 2010)

Target: the molecule itself
Test: SEC

B1: Mycobacterium tuberculosis Rv2704 (natural protein)
chain: ASRTMVSSGSEFESAVGYSRAVRIGPLVVVAGTTGSGDDIAAQTRDALRRIEIALGQAGATLADVVRTRIYVTDISRWREVGEVHAQAFGKIRPVTSMVEVTALIAPGLLVEIEADAYVGSAVADRNSGAGPKDPSPAGG
stoichiometry N: 3
